Measurements taken from patent US6518054B1, “Metallo-endopeptidases” (Rijksuniverstteit Te Groningen, priority 1997, dated 2003).

Assays:
Type in all cases: biochemical
β-Casein = assay: Proteolytic (cleavage) specificity on β-casein, reversed phase peptide pattern; settings: moderate and high temperatures (60° C. and 100° C.)
Method: FIG. 3. Typical proteolytic specificity of TLP-ste and the 8-fold mutant β-Casein (1 mg/ml) was incubated with TLP-ste or the 8-fold mutant at a molar ratio of 1000:1 for 1 hour at 60° C. and 100° C., respectively. Under these conditions β-casein behaves as a non-compact and largely flexible structure. The peptides resulting from hydrolysis were derivatized with dansyl-chloride. The proteolytic products were separated by loading a sample corresponding to 50 μg β-casein on a reversed phase column (RP-304, Bio-Rad Laboratories, Watford, Herts., UK). The mobile phase used was 50 mM NaAc, pH 5.2. Peptides were eluted with a linear gradient from 0-60% acetonitrile at a flow rate of 1 ml/min. Absorption of the eluting peptides was monitored at 254 nm.

[1] = Effect of denaturing agents on protease activity (FaGLa, 50° C.)
Method: Protease activities were determined in 50 mM MOPS (pH 7.0), 5 mM CaCl2, 50 mM NaCl, 0.01% Triton X-100, 0.5% isopropanol, using 100 μM FaGLa (3-(-2-furylacryloyl)-L-glycyl-L-leucine amide) as a substrate at 50° C. Enzymes and denaturing agents were preincubated in the reaction mixture at 50° C. for 15 minutes prior to the addition of the substrate. The reaction was followed by measuring the change in absorbance at 345 nm. […] Activities are expressed as percentage of the activity in the absence of denaturant.

casein [2] = assay: Specific activity with casein as substrate at 37° C.
Method: Specific activities for TLP-ste and the 8-fold mutant were determined using casein (0.8%) as a substrate in 50 mM Tris-HCl (pH 7.5), 5 mM CaCl2 at 37° C. […] (pH 7.0), 5 mM CaCl2, 5% or 1% DMSO, 0.5% isopropanol, 0.01% Triton X-100, 50 mM NaCl, with […] of substrate, by measuring the decrease in absorption at 345 nm (Î345=−317 M^−1·cm^−1). Stock solutions of the furylacryloylated dipeptides, (Sigma, St. Louis, […].) were prepared by dissolving 3-(-2-furylacryloyl)-L-glycyl-L-leucine amide (FaGLa) and 3-(-2-furylacryloyl)-L-alanyl-L-phenylalanine amide (FaAFa) in DMSO. The kcat/Km ratios of the enzymes were determined by varying the enzyme concentrations (over a 50 fold range) under pseudo-first order conditions by measuring the initial activity, essentially according to the method described by Feder^30. The Ki for phosphoramidon (N-[a-L-rhamnopyrano-syl-oxyhydroxyphophinyl]-L-leucyl-L-tryptophan) was determined by a 30 minute preincubation of a 100 pM protease solution with varying concentrations of the inhibitor (10^−8 to 10^−3 M), in 50 mM MOPS (pH 7.0), 5 mM CaCl2, 50 mM NaCl, prior to the addition of the furylacryloated substrate. For determination of the Ki FaAFa was used as the substrate. Since the Km of the substrate for the enzyme is higher than the concentration used, IC50 values were taken to be equal to Ki values. The optimum temperature for activity was determined by incubating proteases with casein (0.8%) in 50 mM Tris-HCl (pH 7.5), 5 mM CaCl2, at different temperatures for 30 minutes, after which the amount of released peptides, indicative for activity, was measured^11.

casein [3] = assay: Hydrolysis of 10% (w/v) casein compared with commercial enzyme preparations; settings: casein 10% w/v
Description: In industrial applications enzymes are used for the hydrolysis of protein preparations derived from different sources. Here we show the results of a comparative study in which the rate and quality of hydrolysis of casein and yeast protein preparations by the 8-fold mutated TLP-ste variant was compared with that obtained by the hydrolysis using 3 different enzyme preparations that are used for these purposes in industry. The hydrolysis conditions were chosen such that they were optimal for each of the enzyme preparation under study. The hydrolysis products were separated in an acid-soluble and a not acid-soluble fraction. The amount of acid-soluble protein material formed upon hydrolysis was determined by means of measuring the absorbance at 275 nm, whereas the composition of the acid-insoluble hydrolysis products was studied using SDS-PAGE.
Substrate (10% w/v of casein or yeast protein preparation) was incubated in 50 mM Tris-MES, 5 mM CaCl2, pH 6.5 at 50° C. (Enzyme I, Favourzyme™ 1000L); 50 mM Tris-MES, 5 mM CaCl2, pH 6.0 at 60° C. (Enzyme II, BioProtease N100L); 50 mM Tris-MES, 5 mM CaCl2, pH 8.0 at 60° C. […] The amount of acid-soluble protein released by hydrolysis was determined by measuring the absorbance of the samples at 275 nm. The acid precipitated proteins were redisolved in 6 M urea and subsequently analysed by SDS-PAGE (15% running gel).

B1: 8-fold mutant: TLP-ste with A4T, T56A, G58A, T63F, S65P, A69P and a disulfide bridge G8C-N60C (protein)
chain: VAGTSTVCVGRGVLGDQKYINTTYSSYYGYYYLQDNTRGSGIFTYDGRNRTVLPGSLWADADCQFFAPYDAPAVDAHYYAGVVYDYYKNVHGRLSYDGSNAAIRSTVHYGRGYNNAFWNGSQMVYGDGDGQTFLPFSGGIDVVGHELTHAVTDYTAGLVYQNESGAINEAMSDIFGTLVEFYANRNPDWEIGEDIYTPGVAGDALRSMSDPAKYGDPDHYSKRYTGTQDNGGVHTNSGIINKAAYLLSQGGVHYGVSVNGIGRDKMGKIFYRALVYYLTPTSNFSQLRAACVQAAADLYGSTSQEVNSVKQAFNAVGVY
With B1 the “cleavage specificity, effect of the stabilizing mutations” value (β-Casein) was “largely unaffected”, the “activity and stability in the presence of high concentrations of denaturing agents” value [1] was “active and stable” and the relative activity ([1]; GndHCl 0 M) was 100%. The relative activity ([1]; GndHCl 1.0 M) was 95%, the relative activity ([1]; GndHCl 2.0 M) was 83% and the relative activity ([1]; GndHCl 3.0 M) was 68%. For the same molecule, the relative activity ([1]; GndHCl 4.0 M) was 50%, the relative activity ([1]; GndHCl 5.0 M) was 40% and the relative activity ([1]; GndHCl 5.5 M) was 15%. For the same molecule, the relative activity ([1]; GndHCl 6.0 M) was 0%, the relative activity ([1]; SDS 0 % w/v) was 100% and the relative activity ([1]; SDS 0.25 % w/v) was 94%. The relative activity ([1]; SDS 0.5 % w/v) was 81%, the relative activity ([1]; SDS 0.75 % w/v) was 57% and the relative activity ([1]; SDS 1.0 % w/v) was 40%. For the same molecule, the relative activity ([1]; SDS 1.25 % w/v) was 29%, the relative activity ([1]; SDS 1.5 % w/v) was 22% and the relative activity ([1]; SDS 2.0 % w/v) was 0%. For the same molecule, the relative activity ([1]; Urea 0 M) was 100%, the relative activity ([1]; Urea 0.5 M) was 97% and the relative activity ([1]; Urea 1.0 M) was 91%. It also gave a relative activity ([1]; Urea 2.0 M) of 93%, a relative activity ([1]; Urea 3.0 M) of 86% and a relative activity ([1]; Urea 4.0 M) of 72%. For the same molecule, the relative activity ([1]; Urea 5.0 M) was 63%, the relative activity ([1]; Urea 7.5 M) was 35% and the “specific activities at 37° C., wild-type versus mutant” value (casein [2]) was “identical”. The Specific activity casein (casein [2]; casein 0.8%, pH 7.5, 5 mM CaCl2) was 3.9 ± 0.7 (U/mg) × 10^−3, the “range of hydrolysis products (SDS-PAGE) versus the other enzymes” value (casein [3]) was “much broader range of hydrolysis products” and the “rate of hydrolysis and acid-soluble protein products versus the other enzyme preparations” value (casein [3]; enzyme 0.05% v/v, pH 7.0, 90° C.) was “more rapidly and that more acid-soluble protein products are produced”.
